Test in all cases: cell_activity
The subject of data set [1] is ZC3H10 TALE-VP64 (Xanthomonas). Conditions: CITED; U-2OS; cited from earlier work.
For data set [2], the system named is TALE-activator Ntf3-4 (Xanthomonas). Conditions: NTF3 mRNA in 293 cells; p65 version weaker.
Data set [3] has as its system PUMA TALE-VP16 (Xanthomonas). Conditions: CITED; cited from earlier work.
Data set [4] relates to TALE-activator Ntf3-5 (Xanthomonas). Conditions: NTF3 mRNA in 293 cells; p65 version weaker.
In data set [5] the test system is TALE-activator Ntf3-2 (Xanthomonas). Conditions: NTF3 mRNA in 293 cells; p65 version weaker.
In data set [6] the test system is OSGIN2 TALE-VP64 (Xanthomonas). Conditions: CITED; U-2OS; cited from earlier work.
Data set [7] relates to IFNb1 TALE-VP16 (Xanthomonas). Conditions: CITED; cited from earlier work.
The test system of data set [8] is IFNa1 TALE-VP16 (Xanthomonas). Conditions: CITED; cited from earlier work.
Data set [9] has as its system NTF3 TALE-VP16 (Miller 2011) (Xanthomonas). Conditions: CITED; HEK293; cited from earlier work.
Data set [10] deals with TALE-activator Ntf3-3 (Xanthomonas). Conditions: NTF3 mRNA in 293 cells; p65 version weaker.
The subject of data set [11] is TALE-activator Ntf3-1 (Xanthomonas). Conditions: NTF3 mRNA in 293 cells; weakest about 1000-fold; p65 version weaker.
Data set [12] relates to KLF4 TALE-VP16 (Xanthomonas). Conditions: CITED; cited from earlier work.
Data set [13] deals with SOX2 TALE-VP16 (Xanthomonas). Conditions: CITED; cited from earlier work.

We go through 13 sequences from patent publication US20170114347.

Turning to “TACCATATCCCATCCAACTC (double strand) [ZC3H10 site]”, the activity (fold activation) in [1] was 1.3. For “TACGCCTCAGACCTGATC (double strand) [Ntf3-4 site]”, in data set [2], the activity (fold activation (approx.)) was above 1000.

“TACTTGGAGGCAGTCAAGT (double strand) [PUMA site]”: the activity (fold activation) in [3] is 1.5.

Take “TCCCTCAATCTGGGAAAG (double strand) [Ntf3-5 site]”: in data set [4], the activity (fold activation (approx.)) is above 1000. Consider “TCCGAACAGCTCCGCGCA (double strand) [Ntf3-2 site]”, for which the activity (fold activation (approx.)) in [5] was above 1000. Turning to “TCCTCCCCACCTTTAATTTT (double strand) [OSGIN2 site]”, in data set [6], the activity (fold activation) was 4.8.

In the case of “TCTCATATAAATAGGCCAT (double strand) [IFNb1 site]”, the activity (fold activation) in [7] is 3.5. Regarding “TGGAAAGTGGCCCAGAAGCAT (double strand) [IFNa1 site]”, the activity (fold activation) in [8] was 3.1. “TGGAGCCATCTGGCCGGGT (double strand) [NTF3 site]”: the activity (fold activation) in data set [9] is 30. Take “TTCCCCTGCTGGGTAGTG (double strand) [Ntf3-3 site]”: the activity (fold activation (approx.)) in [10] was above 1000. Take “TTCTGTTCACGGGACTCA (double strand) [Ntf3-1 site]”: in data set [11], the activity (fold activation (approx.)) is above 1000.

On to “TTCTTACTTATAAC (double strand) [KLF4 site]”, for which, in data set [12], the activity (fold activation) was 2.2. For the sequence “TTTATTCCCTGACA (double strand) [SOX2 site]”, the activity (fold activation) in data set [13] is 5.5.
